According to the DeepSol protein solubility set:

assay: soluble on expression in E. coli; label from the status in PepcDB or PDB records

| Sequence | soluble on expression in E. coli |
| --- | --- |
| MLEANVYDNFNPNYYNISDFSMPNGKKEKRGLPIPKARCQVINYELWETGYLYTSSATLTVSVEVGDIVQILFPEVVPIEEALGKKKKLNLDMVYLVTDVDESNKATLKNYFWAMIESLDVPNAITKTTNFAIIDYLIDPNKNNLMSYGYFFNSSIFAGKATINRKAETSSAHDVAKRIFSKVQFQPTTTIQHAPSETDPRNLLFINFASRNWNRKRITTRVDIKQSVTMDTETIVERSAYNFAVVFVKNKATDDYTDPPKMYIAKNNGDVIDYSTYHGDGTDLPDVRTAKTLFYDRDDHGNPPELSTIKVEISPSTIVTRLIFNQNELLPLYVNDLVDIWYEGKLYSGYIADRVKTEFNDRLIFVESGDKPNVI | soluble |
| MGSDKIHHHHHHMKENIEKLFQAIAQKNPIHSKYLKKIEFSQEDEEEFDKLISYYIQDGISIKEQCDCYLLILNDTLEETKFFIENGAYRYSSFDEVKDKVYFNESYMKQYMIGLALSSFVWIAHIKVRKYFSQYLQNFTPKTTYFEIGPGHGEYFARAVKSGKFSAFYGLDISPTSCELTQKMVKQQVGGLITKCDFLCQDFFTYDFDKKADLIVIGEVLEHVEKPLEFLKRSKELLSDGGEIFATIPINAPAIDHIYLFSHPDEVKDLIEKSGLKFKAYECFMANDYSLEKALKFKNAITMAVVLNA | not soluble |
| MVYKTKLGEIEISDESIFTFEKGIPGFEHLRKFALVFPQETFPIGWLLSLEDSEVGLPVVDPKLVRADYDPAVPSEDLEEIEAENQEALLFFCVLTIPPGKPEKTTINLRAPIILNQKKKKGIQTILENEDYQLRHLLSEEIERSKTVVAAALEHHHHHH | soluble |
| MGSDKIHHHHHHMSNSLKASTAGLAIVDKSRQRLGWTKTSTARWWQDAHTSRATLRRFWQGDRIQREIFIAICQAVGIGNWEAIAELSNADLESTVVIPTPYLDCNEAPDLESFYGRNQELAQLEEWLTSQNCKLVTINGIAGIGKTALALALVDRIQLKFDCLIWKSLQTSPSLISLLNSLLNSFEQGVVVQNIQQGTAQLIQQLQKHHCLLILDGLEAIFSQPEDLSYGQFIQQLSRERHQSCILISSREQPNNIETNTKIYHCLNLKGLPKTEAVELLQSRGFTGKELGLSVLIQLYRGNPLVLKLVTPLIQSVFGGNVAAFLSQHTLIVGDRLRVILKQQFEQLSGLEQDILYWLAIWQEPVSFSRLQTHLLISVDPAMVLEGIVALERRSLLEKWVSDYELSFTLQPLVMKVVTDELIEHTVQEIDRVVQSHDIRHFQILRTHWLLRPGTDDIAGDRILTQLWKKLWHLYGATLPQIFNQILLLLKSQSPLAMGYIGSNVAILSGIDLL | not soluble |
| MNTGPYYFVKNLPLHELITPEFISTFIKKGSCYALTYNTHIDEDNTVALLPNGKLILSLDKDTYEETGLQGHPSQFSGRKIMKFIVSIDLMELSLNLDSKKYERISWSFKEKKPLKFDFLLAWHKTGSEESTMMSYFSKYQIQEHQPKVALSTLRDLQCPVLQSSELEGTPEVSCRALELFDWLGAVFSNVDLNEPNNFISTYCCPEPSTVVAKAYLCTITGFILPEKICLLLEHLCHYFDEPKLAPWVTLSVQGFADSPVSWEKNEHGFRKGGEHLYNFVIFNNQDYWLQMAVGANDHCPPLEHHHHHH | not soluble |
| MSLTSAPCPFRVNRIDLRVLPMRTRFPFRYGIASLVALPHLFVTVELEVNGQSVIGRTSEGLPPKWFTKDPGTPNELEVAGMLAVIQNAVRLATLHGREPVTWYPLVRQLAAEQKLWASRHDHPPLLWNLGISLMERALLDALCQAWQEPLHAVLRGPALGIRWSELHPSLADDAVPPFLADPPASQLALRHTIGLADPLTAADIPSGEEVNDGLPHTLDDCIRAYGLRYFKIKLSGNLEADRHRLTSVASVIRQHASPDFSATLDGNENFQDLTAFREWFEALNSDPGLKDFMPHVLWIEQPLHRDSALNPELFDAFRNWPEAPRLIIDESDGESGALQTALELGYSGGSHKNCKGILKGLANAATLHAFRAAHPERDFILSGEDLANVGPIPLTQDLAMQALLGIPHVERNGHHYFRGLSMYPDGIGVSAATLAAHPDLYHQLPDGLATLNIREGFIAIDSVNQAPFGTPVAPPVDQLPTVKEWILQGGLGALEGEGHHHHHH | soluble |
| MRSSKSPFKRKSHSRETSHDENTSFFHKRTISGSSAHHSRNVSQGAVPSSAPPVSGGNYSHKRNVSRASNSSQTSNFLAEQYERDRKAIINCCFSRPDHKTGEPPNNYITHVRIIEDSKFPSSRPPPDSKLENKKKRLLILSAKPNNAKLIQIHKARENSDGSFQIGRTWQLTELVRVEKDLEISEGFILTMSKKYYWETNSAKERTVFIKSLITLYIQTFEGHVPELVNWDLSLFYLDERSYQRAVITNRPGSVSPIKSPTSNFTTNTTQSVGSVPFSAPTERTRRSETESVNPVSTPASVEYHAGMKSLNKAPYSSNS | soluble |
| MSLTRRATSLLPPNATALERRLADTNARISDIPVDIGALMDPDAIPLRFLPWLAWHLGVETWKDYWPEQVKRARVKAAIRIARKKGTAAAVREVCASFGANVAMREWFEKTPKGRPGTFEILMTVGARDGIPATAEYVADIIAEVDRAKRGTAHYTFTQGFGATGTQRIGAGARVAVYRRLSLTDIEGHHHHHH | not soluble |
| MTITSFGPANRIARTAETHPLTWRLRDDGEPVWLDEYQTKDGYAAARKALTQQAPDDIVQSVKDSGLKGRGGAGFPTGVKWGLMPKDESMNIRYLLCNADEMEPNTWKDRMLMEQLPHLLIEGMLISARALKAYRGYIFLRGEYVTAAKHLNRAVAEAKAAGLLGKNILGTGFDFELFVHTGAGRYICGEETALINSLEGRRANPRSKPPFPAAVGVWGKPTCVNNVETLCNVPAIVNNGNDWYKSLAREGSEDHGTKLMGFSGKVKNPGLWELPFGVQARELFEDYAGGMRDGFTLKCWQPGGAGTGFLLPEHLDAQMYAGGIAKVGTRMGTGLAMAVDDSVNMVSLLRNMEEFFAQESCGFCTPCRDGLPWSVKILRAIENGHGQPGDIETLLGLVNFLGPGKTFCAHAPGAVEPLGSAIKYFRSEFEAGIAPASAAMLVPGKSPTVVGALEHHHHHH | not soluble |
| MSLQMKPEDILENIFYFRVCSYTEQIALVNHLEKFISENKDVKVVIVDSITFHFRQDYDDLAQRTRVLSEMALKFMKLAKKFSLAVVLLNQVTTKFSEGSFQLALALGDSWSHSCTNRVILYWNGDERYAYIDKSPSLPSASASYTVTSRGLRNSSEGHHHHHH | not soluble |
| MGSDKIHHHHHHAEVPVSDTIQQEAPAKVQITYDDPRDPFEGFNRAMWDFNYLYLDRYLYRPVAHGYNDYIPMPAKTGINNFVQNLEEPSSLVNNVLQGKWGWAANAGGRFTINSTVGLLGVIDVADMMGMSRKQDEFNEVLGYYGVPNGPYFMAPFAGPYVVRELASDWVDGLYFPLSELTMWQTIVKWGLKNLHSRASAIDQERLVDNALDPYAFVKDAYLQHMDYKVYDGNVPQKQDDDELLDQYMQELE | not soluble |
| MRTGKAWVWQLRRAAERTRRPFAGDNSPTFTVEHTHRMYPCHVFCNPLIGTIQMKACSRSERREGSKKMEAAKASKPDVSAVYAVDLSQRPVSQGDAAREKAALLQLARRMHEAPGEMLRRFVELAMELTGGISAGISLLEETEPPPVFRWHHLKGILSPFNGATTPRDFSPCGITLDRSAPTLTIHPERVYDWIPPGLFLPEVLLVPLYIGRTEPLGTLWIVADRIEHFHCGHAATMQELAGFIGIALKMVRSEEELQQALEQQELLTREMGHRLKNLFTILDSMVRISARSTDNKDDLVALLSGRLHALAAAHSLVKPSFSDVQGAASSLAELLSIVLEPHEQPAISGKRRLSLTGPTVLCGEQSVNGLALVFHELATNAAKYGSLCGDLGTVDVVWQIDGDDLGITWREDGGAQATSSSPASKGFGSTLVEATVIRQFGGTLSYDWRSTGLSVHIVIPLCRLAQ | not soluble |
| MLDPARSFDIIGDVHGCALTLERLLDALGYKRVAGVWRHPRRQALFLGDIVDRGPRIREALHIVHDMVEAGQAFCIMGNHEYNALGWVTPALPGSGKAYVREHTPRHARLIDETLTQFAQHPGDWHDFVNWFYQLPLFIDAGRFRLVHALEHHHHHH | not soluble |
| MEAFIRSDQYNFIKSQAYILANGHATANDRGVIQALKSLAIEKIIHVFENLTDEQKELIDTVLTVQNREDAESFLTKINPYVIPFQEVTAQTLKKLFPKAKKLKLPDMEEMDMKEISYLSWVDKGSSRKFIIAKNDKNKFVGLQGTFQSLNKKSICSLCHGHEEVGMFLVEIKGDIPGTFVKKGNYICKDGVACNQNMKSLDKLQDFIERLKK | not soluble |
| MKLTPEMLTGKSREHLVNLPTTHSSNHFLQTQAVQAFQALQQSAAKNGFNLQPASSFRDFERQQLIWNSKFKGERKVHDDAGKALDLNQLDDWQKCQAILRWSALLRLVVIIGERKWIFLILIFCHEVNLYNWSLGNMKKAATSLN | not soluble |
| MIDLDSLEHIGVLGKPHGVQGECNARLTADLSTLFEEEERLFLFFELDALPVPFRLIGYREKTDDITLLRFAGIESKEEMEQYTGVSLFMERRYFDTDSIEFTWEHFIGFTVFDREGCFVGTIDDVDESTLNVLLSITTPEGKELLLPVAEDLLEEIDVPNRKLTMIIPDGLLQLLEHHHHHH | soluble |
| MAEEQQNSDQSNGGNVIPTPEEVATFLHKTVEEGGWEKCWEEEITPWDQGRATPLIVHLVDTSSLPLGRALVPGCGGGHDVVAMASPERFVVGLDISESALAKANETYGSSPKAEYFSFVKEDVFTWRPTELFDLIFDYVFFCAIEPEMRPAWAKSMYELLKPDGELITLMYPITDHVGGPPYKVDVSTFEEVLVPIGFKAVSVEENPHAIPTRKGKEKLGRWKKINLEHHHHHH | soluble |
| MGSDKIHHHHHHDDTLTSGTITIAVDETFRPIIEEELQVFYALTPDATVHPIYCSEVEAMKLLLADSVRLAITTRQLTRQETAYLNDKKFFPVSVKMATDGLALIVNKQNTDSLITVDQFKEILTGKVTDWKQLNPASRLGELQLVFDNPNSSTVHYVLDSICGGMPLSKDLKAQKTNPEVISYVAKNPAALGVIGVNWIGNPADSTRLSFNDVIRIMAVSRADSATVGNSFKPYQAYLALNQYPLTRNVYILLNDPKSGLPSGLTSFLTDFRGQRIILKSGLVPATAAVRIVDVKEE | not soluble |
| MGSDKIHHHHHHMYSCYNNFVKYALTMQFDIEVDVMYEVKLDAFNGPLDLLLHLIQKYEIDIYDIPMKALTEQYMQYVHAMNQLEINVASEYLVMASELLMIKSKLLLPQTSIEEDIEEDPREDLVGRLIEYQNYKEYTEILNTMKEERDLYFTKHPTDLTHLETNESWDPNQTIDLTELIVAYQRVKNRVELNTPKSVEIKKETFTIQQATAQVTERLKQHESFNFFSLFTFHEPVEQVVTHFLAILEMSKSGIVNIKQTKQFDDIDIIRGVNYSIG | not soluble |
| MPQFETHRLVKHSPDRMYDLVADVEKYPQFLPLCEALSVRSRKERDGKVLLVADMTVGYKAIRETFTTQVLLNPAERAIDVKYIDGPFRYLDNRWRFEAAENGGTTIHFFIDYEFKNRLLGAVMGSMFDRAFRMFAEAFETRADKIYTDPALEHHHHHH | soluble |
